From patent US20240116985A1, “STAPLED PEPTIDES AND METHODS THEREOF” (priority 2020, published 2024)
Starred links: 1 amine or outer side, 2 acyl side, 3 side chain; linkers in the order of their positions; H or OH if unused. Positions of bridges follow the written chain, without caps; N, C: chain ends. Non-standard residues stand in square brackets, D forms with d. Groups on a side chain read outwards from the residue. Primed or numbered codes have the meaning given here. No end group written: not given here. *: point of attachment. PyrS2″ = (S)-3-amino-1-((pent-4-en-1-yloxy)carbonyl)pyrrolidine-3-carboxylic acid (stapling residue), C=CCCCOC(=O)N1CC[C@@](N[*:1])(C(=O)[*:2])C1; B5(4) = 2,2-bis(4-pentenyl)glycine = 2-amino-2-(pent-4-en-1-yl)hept-6-enoic acid (stitching residue), C=CCCCC(CCCC=C)(N[*:1])C(=O)[*:2]; B5(5) = 2,2-bis(4-pentenyl)glycine, 2-amino-2-(pent-4-en-1-yl)hept-6-enoic acid (stitching residue), C=CCCCC(CCCC=C)(N[*:1])C(=O)[*:2]; (CH2NMe2)4SEF = (S)-2-amino-3-(4-(3-(dimethylamino)prop-1-yn-1-yl)phenyl)propanoic acid, CN(C)CC#Cc1ccc(C[C@H](N[*:1])C(=O)[*:2])cc1; PyrS2 = (S)-3-amino-1-((pent-4-en-1-yloxy)carbonyl)pyrrolidine-3-carboxylic acid, C=CCCCOC(=O)N1CC[C@@](N[*:1])(C(=O)[*:2])C1; 5iPr3COOHF = (S)-3-(2-amino-2-carboxyethyl)-5-isopropylbenzoic acid, CC(C)c1cc(C[C@H](N[*:1])C(=O)[*:2])cc(C(=O)[*:3])c1; B5(27) = 2-amino-2-(pent-4-en-1-yl)hept-6-enoic acid (two alkene side-chain arms), C=CCCCC(CCCC=C)(N[*:1])C(=O)[*:2]; (3C)TriAzLys = (S)-2-amino-6-(4-propyl-1H-1,2,3-triazol-1-yl)hexanoic acid, CCCc1cn(CCCC[C@H](N[*:1])C(=O)[*:2])nn1; MePpzAsn = (S)-2-amino-4-(4-methylpiperazin-1-yl)-4-oxobutanoic acid, CN1CCN(C(=O)C[C@H](N[*:1])C(=O)[*:2])CC1; F2PipNva = (S)-2-amino-5-(4,4-difluoropiperidin-1-yl)pentanoic acid, O=C([C@H](CCCN1CCC(F)(F)CC1)N[*:1])[*:2]; F2PipAbu = (S)-2-amino-4-(4,4-difluoropiperidin-1-yl)butanoic acid, O=C([C@H](CCN1CCC(F)(F)CC1)N[*:1])[*:2]; MePpzNva = (S)-2-amino-5-(4-methylpiperazin-1-yl)pentanoic acid, CN1CCN(CCC[C@H](N[*:1])C(=O)[*:2])CC1; MePpzAbu = (S)-2-amino-4-(4-methylpiperazin-1-yl)butanoic acid, CN1CCN(CC[C@H](N[*:1])C(=O)[*:2])CC1; 4TriA = (S)-2-amino-3-(1H-1,2,3-triazol-4-yl)propanoic acid, O=C([C@H](Cc1c[nH]nn1)N[*:1])[*:2]; Lithocholoyl = C[C@H](CCC(=O)*)[C@H]1CC[C@H]2[C@@H]3CC[C@@H]4C[C@H](O)CC[C@]4(C)[C@H]3CC[C@]12C; MorphAsn = (S)-2-amino-4-morpholino-4-oxobutanoic acid, O=C(C[C@H](N[*:1])C(=O)[*:2])N1CCOCC1; B5(3) = 2,2-bis(4-pentenyl)glycine (stitching residue), C=CCCCC(CCCC=C)(N[*:1])C(=O)[*:2]; Me3AdamantC = 3,5,7-trimethyladamantane-1-carbonyl, CC12CC3(C)CC(C)(C1)CC(C(=O)*)(C2)C3; MorphAbu = (S)-2-amino-4-morpholinobutanoic acid, O=C([C@H](CCN1CCOCC1)N[*:1])[*:2]; Phe(4-(3-Py)) = N[C@@H](Cc1ccc(-c2cccnc2)cc1)C(=O)O; Nva(5-morpholino) = N[C@@H](CCCN1CCOCC1)C(=O)O; Phe(3-COOH) = N[C@@H](Cc1cccc(C(=O)O)c1)C(=O)O; Phe(2-CF3) = N[C@@H](Cc1ccccc1C(F)(F)F)C(=O)O; Bta = N[C@@H](Cc1csc2ccccc12)C(=O)O; αAllylPro = C=CC[C@@]1(C(=O)O)CCCN1; tBuAla = CC(C)(C)C[C@H](N)C(=O)O; 3Thi = N[C@@H](Cc1ccsc1)C(=O)O; hSer = N[C@@H](CCO)C(=O)O; PEG2′ = not defined here

The binders below were run against full-length beta-Catenin (Uniprot ID P35222) (Homo sapiens (Human)) (UniProt P35222) (assay: fluorescence polarization competition; displacement of 5FAM-TCF4(10-53) from full-length beta-catenin).

| IC50 | Binder |
| --- | --- |
| 41 nM | Ac-[αAllylPro]D[tBuAla][B5(4)]DDAK([PEG2′-Lithocholoyl])FL[PyrS2″][3Thi][Bta]Q-NH2 (staple 1-4, 4-11) [I-1474] |
| 39 nM | Ac-[αAllylPro]D[tBuAla][B5(27)]DDA[F2PipAbu]FL[PyrS2][3Thi][Bta]Q-NH2 (staple 1-4, 4-11) [I-1505: Ac-PL3-Asp-Npg-B5-Asp-Asp-Ala-F2PipAbu-Phe-Leu-PyrS2-3Thi-BztA-Gln-NH2] |
| 148 nM | Ac-[αAllylPro]D[tBuAla][B5(5)]DDAAFL[PyrS2″][3Thi][Bta]QK(Lithocholoyl)-NH2 (staple 1-4, 4-11) [I-1477] |
| 48 nM | Ac-[αAllylPro]D[tBuAla][B5(27)]DDAAFL[PyrS2][3Thi][Bta][4TriA]-NH2 (staple 1-4, 4-11) [I-1498] |
| 89 nM | Ac-[αAllylPro]D[tBuAla][B5(4)]DDA[MePpzAbu]FL[PyrS2][3Thi][Bta]Q-NH2 (staple 1-4, 4-11) [I-1506: Ac-PL3-Asp-Npg-B5-Asp-Asp-Ala-MePpzAbu-Phe-Leu-PyrS2-3Thi-BztA-Gln-NH2] |
| 7 nM | Ac-[αAllylPro]D[tBuAla][B5(5)]DDAAFQ[PyrS2][3Thi][Bta]H-NH2 (staple 1-4, 4-11) [I-1460] |
| 17 nM | Ac-[αAllylPro]D[tBuAla][B5(3)]DD[Phe(4-(3-Py))]AFL[PyrS2″]F[Bta]Q-NH2 (staple 1-4, 4-11) [I-1489] |
| 30 nM | Ac-[αAllylPro]D[tBuAla][B5(27)]DDA[MorphAsn]FL[PyrS2][3Thi][Bta]Q-NH2 (staple 1-4, 4-11) [I-1507: Ac-PL3-Asp-Npg-B5-Asp-Asp-Ala-MorphAsn-Phe-Leu-PyrS2-3Thi-BztA-Gln-NH2] |
| 22 nM | Ac-[αAllylPro]D[tBuAla][B5(3)]DD[MorphAsn]AFL[PyrS2″][3Thi][Bta]Q-NH2 (staple 1-4, 4-11) [I-1483] |
| 34 nM | Ac-[αAllylPro]DK(Me3AdamantC)[B5(4)]DDAAFL[PyrS2][3Thi][Bta]Q-NH2 (staple 1-4, 4-11) [I-1471] |
| 7 nM | Ac-[αAllylPro]D[tBuAla][B5(3)]DD[F2PipNva]AFL[PyrS2″][3Thi][Bta]Q-NH2 (staple 1-4, 4-11) [I-1482] |
| 224 nM | Ac-[αAllylPro]D[tBuAla][B5(5)]DDAK(Lithocholoyl)FL[PyrS2][3Thi][Bta]Q-NH2 (staple 1-4, 4-11) [I-1473] |
| 30 nM | Ac-[αAllylPro]D[tBuAla][B5(3)]DD[MePpzAsn]AFL[PyrS2″][3Thi][Bta]Q-NH2 (staple 1-4, 4-11) [I-1484] |
| 16 nM | Ac-[αAllylPro]D[tBuAla][B5(4)]DDAK([PEG2′-Me3AdamantC])FL[PyrS2″][3Thi][Bta]Q-NH2 (staple 1-4, 4-11) [I-1476] |
| 7 nM | Ac-[αAllylPro]D[tBuAla][B5(3)]DDAAF[Nva(5-morpholino)][PyrS2″][3Thi][Bta]Q-NH2 (staple 1-4, 4-11) [I-1485] |
| 5 nM | Ac-[αAllylPro]D[tBuAla][B5(3)]DDAAFL[PyrS2″][3Thi][Bta]N-NH2 (staple 1-4, 4-11) [I-1492] |
| 5 nM | Ac-[αAllylPro]D[tBuAla][B5(3)]DDAAF[F2PipNva][PyrS2″][3Thi][Bta]Q-NH2 (staple 1-4, 4-11) [I-1486] |
| 173 nM | Ac-[αAllylPro]D[tBuAla][B5(5)]DDAAFL[PyrS2″][3Thi][Bta]QK(Me3AdamantC)-NH2 (staple 1-4, 4-11) [I-1479] |

| IC50 | Binder |
| --- | --- |
| 51 nM | Ac-[αAllylPro]D[tBuAla][B5(27)]DDAAFL[PyrS2][3Thi][Bta]F-NH2 (staple 1-4, 4-11) [I-1496] |
| 95 nM | Ac-[αAllylPro]DK(Lithocholoyl)[B5(5)]DDAAFL[PyrS2][3Thi][Bta]Q-NH2 (staple 1-4, 4-11) [I-1469] |
| 5 nM | Ac-[αAllylPro]D[tBuAla][B5(27)]DDAAFL[PyrS2][3Thi][Bta]T-NH2 (staple 1-4, 4-11) [I-1494] |
| 7 nM | Ac-[αAllylPro]D[tBuAla][B5(3)]DDAAF[MorphAsn][PyrS2″][3Thi][Bta]Q-NH2 (staple 1-4, 4-11) [I-1487] |
| 34 nM | Ac-[αAllylPro]D[tBuAla][B5(27)]DDA[F2PipNva]FL[PyrS2][3Thi][Bta]Q-NH2 (staple 1-4, 4-11) [I-1502] |
| 57 nM | Ac-[αAllylPro]DK([PEG2′-Lithocholoyl])[B5(4)]DDAAFL[PyrS2][3Thi][Bta]Q-NH2 (staple 1-4, 4-11) [I-1470] |
| 38 nM | Ac-[αAllylPro]D[tBuAla][B5(4)]DDA[MePpzNva]FL[PyrS2][3Thi][Bta]Q-NH2 (staple 1-4, 4-11) [I-1503] |
| 75 nM | Ac-[αAllylPro]D[tBuAla][B5(4)]DDAAFL[PyrS2″][3Thi][Bta]QK([PEG2′-Lithocholoyl])-NH2 (staple 1-4, 4-11) [I-1478] |
| 12 nM | Ac-[αAllylPro]D[tBuAla][B5(4)]DD[(CH2NMe2)4SEF]AFL[PyrS2]F[Bta]Q (staple 1-4, 4-11) [I-1467] |
| 46 nM | Ac-[αAllylPro]D[tBuAla][B5(27)]DDA[Nva(5-morpholino)]FL[PyrS2][3Thi][Bta]Q-NH2 (staple 1-4, 4-11) [I-1501] |
| 7 nM | Ac-[αAllylPro]D[tBuAla][B5(3)]DD[Nva(5-morpholino)]AFL[PyrS2″][3Thi][Bta]Q-NH2 (staple 1-4, 4-11) [I-1481] |
| 37 nM | Ac-[αAllylPro]D[tBuAla][B5(3)]DDAAFL[PyrS2″][3Thi][Bta]QK([PEG2′-Me3AdamantC])-NH2 (staple 1-4, 4-11) [I-1480] |
| 46 nM | Ac-[αAllylPro]D[tBuAla][B5(27)]DDA[MorphAbu]FL[PyrS2][3Thi][Bta]Q-NH2 (staple 1-4, 4-11) [I-1504] |
| 50 nM | Ac-[αAllylPro]D[tBuAla][B5(27)]DDAAFL[PyrS2][3Thi][Bta]W-NH2 (staple 1-4, 4-11) [I-1497] |
| 113 nM | Ac-[αAllylPro]D[tBuAla][B5(5)]DDAK(Me3AdamantC)FL[PyrS2″][3Thi][Bta]Q-NH2 (staple 1-4, 4-11) [I-1475] |
| 24 nM | Ac-[αAllylPro]D[tBuAla][B5(27)]DDAAFL[PyrS2][3Thi][Bta]V-NH2 (staple 1-4, 4-11) [I-1495] |
| 6 nM | Ac-[αAllylPro]D[tBuAla][B5(3)]DDAAF[MePpzAsn][PyrS2″][3Thi][Bta]Q-NH2 (staple 1-4, 4-11) [I-1488] |
| 5 nM | Ac-[αAllylPro]D[tBuAla][B5(5)]DDAAFQ[PyrS2][3Thi][Bta]H-NH2 (staple 1-4, 4-11) [I-1459] |

What follows are binders tested against full-length beta-Catenin (Uniprot ID P35222) (Homo sapiens (Human)) (UniProt P35222) (assay: fluorescence polarization competition; full-length beta-catenin, competitor 5FAM-TCF4(10-53) probe).
Target sequence in this assay (P35222 whole entry): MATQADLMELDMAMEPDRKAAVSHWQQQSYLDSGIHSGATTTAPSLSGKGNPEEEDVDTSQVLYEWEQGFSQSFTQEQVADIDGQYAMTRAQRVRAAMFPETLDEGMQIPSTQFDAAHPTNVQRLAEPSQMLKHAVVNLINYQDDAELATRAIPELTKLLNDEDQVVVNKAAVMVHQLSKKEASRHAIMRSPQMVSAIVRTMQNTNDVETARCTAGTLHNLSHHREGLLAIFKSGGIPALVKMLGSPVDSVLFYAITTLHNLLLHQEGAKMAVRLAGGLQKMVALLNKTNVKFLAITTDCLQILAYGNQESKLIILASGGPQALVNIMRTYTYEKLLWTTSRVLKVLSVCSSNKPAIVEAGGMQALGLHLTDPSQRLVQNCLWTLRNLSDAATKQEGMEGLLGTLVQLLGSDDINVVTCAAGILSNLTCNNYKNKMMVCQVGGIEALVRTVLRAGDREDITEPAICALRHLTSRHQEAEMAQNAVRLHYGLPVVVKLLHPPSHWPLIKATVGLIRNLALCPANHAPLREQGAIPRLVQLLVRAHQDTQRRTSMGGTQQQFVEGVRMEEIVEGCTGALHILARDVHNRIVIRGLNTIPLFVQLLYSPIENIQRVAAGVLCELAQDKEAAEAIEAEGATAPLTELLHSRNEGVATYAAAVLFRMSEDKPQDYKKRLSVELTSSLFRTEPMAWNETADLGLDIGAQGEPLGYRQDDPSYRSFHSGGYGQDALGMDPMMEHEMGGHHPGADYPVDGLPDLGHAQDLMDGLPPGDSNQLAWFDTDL

| IC50 | Binder |
| --- | --- |
| 1760 nM | Ac-[αAllylPro][hSer][tBuAla][B5(5)]DHAAFT[PyrS2″]F[Bta]Q-NH2 (staple 1-4, 4-11) [I-2438] |
| 33 nM | Ac-[αAllylPro]D[tBuAla][B5(5)]D[5iPr3COOHF]QAFL[PyrS2″][Phe(2-CF3)][Bta]A-NH2 (staple 1-4, 4-11) [I-2431] |
| 360 nM | Ac-[αAllylPro]N[tBuAla][B5(5)]DQAAFH[PyrS2″]F[Bta]Q-NH2 (staple 1-4, 4-11) [I-2440] |
| 60 nM | Ac-[αAllylPro]D[tBuAla][B5(5)]D[Phe(3-COOH)]AAFL[PyrS2″][Phe(2-CF3)][Bta]S[(3C)TriAzLys]-NH2 (staple 1-4, 4-11) [I-2432] |
| 2760 nM | Ac-[αAllylPro][hSer][tBuAla][B5(5)]DQAAFH[PyrS2″]F[Bta]Q-NH2 (staple 1-4, 4-11) [I-2439] |
